The values below come from patent US20230303681A1 (published 2023).

First the molecules themselves.
B1: anti-TMEM106B antibody TM-5 (antibody, V domains shown)
VH: QVQLQQSGTELARPGASVKVSCKASGYIFTTYGITWVKQRGGQGLEWIGEIYPRSDNTYYNEKFKDKATLTADKSSSTAYMELRSLTSEDSAVYFCARSKGSGTGDYWGQGTTVTVSS
VL: DIQMTQSPASLSASVGETVTITCRASENIYIYLAWYQQKQGKTPQLLVYNGKMLAENVPSRFSGSGSGTQFSLKINSLQPEDFGSYYCQHHYGSPPAFGAGTKLELK
B2: anti-TMEM106B antibody TM-29 (antibody, V domains shown)
VH: QVQLRQSGAELVRPGASVKLSCKASGYTFTDYYINWVKQRPGQGLEWIARIYPGSGYTYYNEKFKGKATLTAEGSSNTAYMQLSSLTSEDSAVYFCANHYTNPFAYWGQGTLVTVSA
VL: DIVMTQAAFSNPVTLGTSASISCRSSKSLLHYNGITYLYWYLQKPGQSPQLLIYQMSNLASGVPDRFSSSGSGTDFTLRISRVEAEDVGVYYCAQNLELPYTFGGGTKLEIK
B3: anti-TMEM106B antibody TM-3 (antibody, V domains shown)
VH: QVTLKESGPGIVQPSQTLSLTCSFSGFSLNTLGRGVGWIRQPSGKGLEWLAKIWWNDDKFYYPALKSRLTISKDTSKNQIFLKIANVDTADSATYYCARIAGGTGAAYWGQGTTLTVSS
VL: B2 VL with Y32S, Y54S, N58S, S70G, Y91F, Y101W, I111L
B4: anti-TMEM106B antibody TM-9 (antibody, V domains shown)
VH: EVQLVESGGDLVKPGGSLKLSCVASGFTFSGYGMSWVRQTPDKRLEWVATISSGSFYIYYPDSVKGRLTVSRDNAKNTLYLQMSSLKSEDTAIYYCARQNFYYGCEDYWGQGTTLTVSS
VL: B2 VL with Y32S, D65N, Y101W
B5: anti-TMEM106B antibody TM-28 (antibody, V domains shown)
VH: EVQLQQSGPVLVKPGPSVKISCMASVFTFNDYYIHWVKQSHGKSLEWIGLVYPYNGGTNYNQNFKGKATLTVDTSSRTAYMELNSLTSEDSAVYYCARSYFSNPIGYWGQGTLVTVSE
VL: DIVMTQSPSSLSVSVGEKVTVSCKSSQSLLNSGNQKNYLAWYQQKPGQPPKLLIYGASTRESGVPDRFTGSGSGTDFTLTISSVQAEDLAVYYCQNDHSYPLTFGAGTKLELK
B6: anti-TMEM106B antibody TM-7 (antibody, V domains shown)
VH: EVQLQQSGPVLVKPGPPVKISCKASGFTFTDYYIHWVKLSHGKSLEWIGLVYPYNGDTDYNQKFKGKATLTVDTSSSTAYMELNSLTSEDSAVYYCARTYYANSPDYWGQGTTVTVSS
VL: B5 VL with V15A, V21M, K36R, S83N
B7: anti-TMEM106B antibody TM-34 (antibody, V domains shown)
VH: EVQLVESGGGLVKPGGSLKLSCAASGFSFSDSGMDWVRQAPEKGLEWFAYISSGSSTTHYADTVKGRFIISRDNAKNTLFLQMTSLRSEDTAMYYCVRRDGNYWYFDVWGTGTTVTVSS
VL: QIVLSQSPVILSASPGEKVTMTCRATSSVTYMHWYQLKPGSSPKPWIYATSNLASGVPARFSGSGSGTSYSLTISRVEAEDAATYYCQQWSSNPYTFGGGTKLEIK

Substitutions are numbered along the chain they refer to. Values joined by “and” are separate entries in the source; they are usually repeats but may differ in a detail not shown here. Equal values may be shown once.
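Throughout, for Kd: antibodies amine-coupled on an MX-96 chip, antigen flowed at 500 nM top concentration in 5-fold serial dilutions, GST alone run as nonspecific-binding control, duplicate measurements.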
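Throughout, for fold over negative controls: hybridoma supernatants incubated 30 min on ice with human TMEM106B-expressing HEK293 cells, binding read as anti-mouse-APC median fluorescence on live cells, relative to secondary-antibody-only wells.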
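Throughout, for fold-change over parental HEK293: flow cytometry binding of hybridoma supernatants to HEK293 cells transiently expressing human, cyno or mouse TMEM106B, read as anti-mouse-APC median fluorescence, live cells only, 30 min on ice.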
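Throughout, for koff: antibodies amine-coupled on an MX-96 chip, antigen flowed at 500 nM top concentration in 5-fold serial dilutions, GST alone run as nonspecific-binding control, duplicate measurements.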
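Throughout, for kon: antibodies amine-coupled on an MX-96 chip, antigen flowed at 500 nM top concentration in 5-fold serial dilutions, GST alone run as nonspecific-binding control, duplicate measurements.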

The first experiment deals with T1, GST-fusion human TMEM106B truncated (human).
T1 construct: also called GST-TMEM106B-truncated protein; GST-TMEM106B (truncated)
Nature of the experiment: array SPR, Ab immobilised.
Procedure: Binding kinetic characterization of the purified antibodies was performed by Carterra using a proprietary array SPR instrument (MX-96) as follows. Briefly, antibodies were prepared by diluting to 5 µg/ml in 10 mM Acetate, pH 4.5 (Carterra), at 150 µL/well and then made an additional dilution at 1:10 from there by titrating 11 µl into 100 µL. […] The chip was activated with 18 mM EDC (Sigma Bioxtra) and 4.5 mM S-NHS (Thermo Fisher) diluted in 100 mM MES, pH 5.5, for 7 minutes, and then antibodies were coupled for 10 minutes at 45 µL/minute. After coupling, the chip was returned to the MX-96 and quenched for 7 minutes using 1 M Ethanolamine pH 8.5 (Carterra).
Printed antibodies were profiled for their ability to bind GST-TMEM106B (truncated) protein (described above). Briefly, GST-TMEM106B (truncated) antigen was diluted to 18 µg/ml (500 nM of 36 kDa fusion protein) by mixing 2.7 µL of 2.0 mg/ml antigen into 298 µL Running buffer (HBS-EP+, Teknova with 1 mg/ml BSA, Sigma), and titrated 50 µl into 200 µl for 5-fold serial dilutions. In addition, binding to GST (Pierce) was assayed under the same conditions to determine the extent of any nonspecific binding of the anti-TMEM106B antibodies to GST portion of the TMEM106B-GST fusion protein. Duplicate measurements for each anti-TMEM106B antibody were taken to ensure reproducibility.
As a reminder, the Kd is the equilibrium constant for the complex coming apart. Low values mean a tighter complex, high ones a looser complex. What is called koff is a measure of how fast the partners let go of each other. Low readings indicate a long-lived complex, high ones a short-lived complex. The term kon denotes a measure of how fast the partners come together. A higher kon goes with fast association. With B1, the Kd is 1.4 nM and 1.8 nM; the koff is 3.3e-05 s⁻¹ and 4.8e-05 s⁻¹; the kon is 23000 M⁻¹ s⁻¹ and 26000 M⁻¹ s⁻¹.

Consider B2, for which the equilibrium dissociation constant (Kd) was 3.5 nM and 5.2 nM; the dissociation rate constant (koff) was 6.5e-05 s⁻¹ and 7.8e-05 s⁻¹; the on-rate (kon) was 18000 M⁻¹ s⁻¹ and 15000 M⁻¹ s⁻¹.

As for B3, the Kd was 1.7 nM and 2.1 nM; the koff is 3.8e-05 s⁻¹ and 4.8e-05 s⁻¹; the association rate constant (kon) is 22000 M⁻¹ s⁻¹ and 23000 M⁻¹ s⁻¹.

In the case of B4, the Kd is 4.2 nM and 5.2 nM; the koff is 8.3e-05 s⁻¹ and 8.4e-05 s⁻¹; the association rate constant (kon) was 20000 M⁻¹ s⁻¹ and 16000 M⁻¹ s⁻¹.

B5 came in with an equilibrium dissociation constant (Kd) of 5.3 nM, a koff of 7.2e-05 s⁻¹ and a kon of 14000 M⁻¹ s⁻¹.

On to B6, for which the kon is 9900 M⁻¹ s⁻¹ and 10000 M⁻¹ s⁻¹.

The target of the next experiment is T2, human TMEM106B (human, UniProt Q9NUM4 2-274).
T2 construct: Full-length, on transiently transfected HEK293 cells, or natively expressed on HeLa, U251 and A549 cells; also called huTMEM106B; huTMEM
Nature of the experiment: FACS A549.
Procedure: (§1) All cells were cultured in either T75 or T150 flasks. […] The enzyme was quenched by addition of fresh media, and the cells were then distributed into 96-well plates for FACS analysis.
(§2) FACS analysis was performed as follows. Each cell type was aliquoted in 96-well round bottom plates (2x10^5 cells per well), washed once with FACS buffer (PBS + 2% FBS + 1 mM EDTA), and incubated with 50 µL of hybridoma supernatant or purified antibody (10 µg/ml in FACS buffer) on ice for 1 hour. […] Following this secondary incubation, the cells were again washed 2x with ice-cold FACS buffer and resuspended in a final volume of 50 µL of FACS buffer + 0.25 µl/well propidium iodide (Fisher Scientific # BDB556463). Analysis was performed on a FACSCanto system (BD Biosciences) or iQue (Intellicyt), with sort gates drawn to exclude dead (i.e., propidium iodide positive) cells.
(§3) Data is presented as mean fluorescence intensity (MFI).
For the molecule B1, the MFI worked out at 1170.

For the molecule B2, the MFI worked out at 1410.

B3 registered an MFI of 1800.

The molecule B4 registered an MFI of 1990.

Take B5: the MFI is 2000.

Molecule B6 gave an MFI of 647.

The next experiment addresses T2, human TMEM106B. Nature of the experiment: FACS A549, 10 ug/ml.
Consider B1, for which the MFI was determined as 4800.

With B2, the MFI was 4200.

In turn, B3 displayed an MFI of 7670.

For B4, the MFI was found to be 7090.

For the molecule B5, the MFI amounted to 4350.

Take B6: the MFI is 1810.

For a further experiment, the target named is T3, GST (Pierce) (UniProt P08515 1-218 = GST, limits assumed).
T3 construct: control for the GST part of the fusion protein; also called GST protein; Glutathione-S-transferase
Nature of the experiment: array SPR, Ab immobilised.
As to B7, the binding result was “no binding”.

A further experiment deals with T2, human TMEM106B. Nature of the experiment: FACS HeLa.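 Note: flow cytometry of cells incubated with hybridoma supernatant or purified antibody at 10 µg/ml for 1 h on ice, propidium iodide–positive dead cells gated out.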
Procedure: as §1, §2, §3
On to B1, for which the MFI amounted to 1740.

Take B2: the MFI was determined as 1650.

In the case of B3, the MFI was determined as 2690.

Molecule B4 gave an MFI of 2540.

The molecule B5 returned an MFI of 2790.

Regarding B6, the MFI stood at 1070.

The next experiment concerns the target T2, human TMEM106B. Nature of the experiment: FACS A549, 1 ug/ml.
Procedure: (§4) Purified anti-TMEM106B antibodies were evaluated for their binding affinity to various TMEM106B-expressing cell lines including HEK293 transiently transfected with human/cyno/mouse TMEM106B, as well as HeLa cells and A549 cells. Antibodies tested for this experiment were mouse IgGs purified from hybridoma supernatant. Affinity binding to cells was determined as follows. Briefly, 1x10^5 cells were aliquoted per well in 96-well round bottom plates and incubated with 50 µL of purified anti-TMEM106B antibody at various concentrations (10x dilutions starting at 10 µg/ml) in FACS buffer (PBS + 2% FBS + 1 mM EDTA). […] Sorting was performed on a iQue (Intellicyt), with sort gates drawn to exclude dead (propidium iodide +) cells. Binding data was analyzed using median fluorescent intensity (MFI) and graphed in Prism. Values presented are MFI.
As for B1, the MFI worked out at 1970.

On to B2, for which the MFI worked out at 2480.

Regarding B3, the MFI was 4840.

The molecule B4 gave an MFI of 4880.

B5: the MFI was 2630.

On to B6, for which the MFI was 883.

The next experiment has as its target T3, GST (Pierce). Nature of the experiment: ELISA, coated GST.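 Note: ELISA on plates coated with GST alone at 1-10 µg/ml, antibodies applied at 100-1000x dilution, bound antibody detected by peroxidase substrate colour after acid stop.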
With B1, the binding result was “no binding”.

As for B2, the binding result is given as “no binding”.

On to B3, for which the binding result was “no binding”.

For the molecule B4, the binding result is reported as “no binding”.

On to B5, for which the binding result was “no binding”.

For B6, the binding result was “no binding”.

The next experiment addresses T2, human TMEM106B. Nature of the experiment: FACS HEK+huTMEM, 10 ug/ml.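 Note: purified mouse IgG antibodies at 10 µg/ml bound to HEK293 cells transiently expressing human TMEM106B, measured by flow cytometry as median fluorescence intensity of propidium iodide negative live cells.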
Procedure: as §4
Consider B1, for which the MFI was 59300.

B2: the MFI stood at 61200.

As for B3, the MFI is 82300.

Take B4: the MFI was determined as 56400.

B5 had an MFI of 64800.

B6: the MFI was 40800.

For the next experiment, the target named is T4, mouse TMEM106B (mouse, UniProt Q80X71 2-275).
T4 construct: on transiently transfected HEK293 cells, or natively expressed on mouse Neuro2a cells; also called moTMEM106B; murine TMEM106B
Nature of the experiment: FACS Neuro2a.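 Note: flow cytometry of cells stained with antibody or hybridoma supernatant (purified antibody at 10 µg/ml) for 1 h on ice, propidium iodide–positive dead cells gated out.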
Procedure: as §1, §2, §3
Consider B1, for which the MFI is 1610.

The molecule B2 displayed an MFI of 1480.

B3: the MFI worked out at 1980.

B4: the MFI turned out to be 2710.

In turn, B5 gave an MFI of 2740.

The molecule B6 displayed an MFI of 1200.

A further experiment concerns the target T2, human TMEM106B. Nature of the experiment: FACS, HEK293 transfectants. In general terms: In flow cytometry, cells or beads pass a laser one at a time.
Procedure: Initial screening of the anti-TMEM106B hybridomas was performed as follows.
For screening of the hybridoma cell culture supernatants, humanTMEM106B-transfected HEK293 cells were aliquoted in 96-well round bottom plates (2x10^5 cells per well) and incubated with 50 µL of hybridoma cell culture supernatant on ice for 30 minutes. […] Cell sorting was performed on a FACS Canto system (BD Biosciences) or iQue (Intellicyt), with sort gates drawn to exclude dead (i.e., propidium iodide-positive) cells. Median fluorescence intensity (MFI) of anti-mouse-APC MFI on TMEM106B+ HEK293 cells was calculated for each clone, and those displaying a signal of at least 2-fold over background compared to a secondary-antibody only well were taken forward for further analysis and characterization.
For the molecule B1, the “fold over negative controls” value was greater than 2 fold.

As to B2, the “fold over negative controls” value is greater than 2 fold.

As to B3, the “fold over negative controls” value was greater than 2 fold.

Turning to B4, the “fold over negative controls” value is greater than 2 fold.

As for B5, the “fold over negative controls” value was greater than 2 fold.

For the molecule B6, the “fold over negative controls” value is greater than 2 fold.

Another experiment has as its target T2, human TMEM106B. Nature of the experiment: FACS HEK+huTMEM, 0.01 ug/ml.
Procedure: as §4
Molecule B1 returned an MFI of 2180.

For the molecule B2, the MFI is 4050.

Turning to B3, the MFI is 7700.

As to B4, the MFI is 3940.

Molecule B5 gave an MFI of 3340.

As to B6, the MFI was found to be 1670.

The next experiment addresses T2, human TMEM106B. Nature of the experiment: FACS, HEK293 transfectants. This is another data set of the same source.
Procedure: (§5) For screening of the hybridoma cell culture supernatants, humanTMEM106B-transfected HEK293 cells were aliquoted in 96-well round bottom plates (2x10^5 cells per well) and incubated with 50 µL of hybridoma cell culture supernatant on ice for 30 minutes. […] Median fluorescence intensity (MFI) of anti-mouse-APC MFI on TMEM106B+ HEK293 cells was calculated for each clone, and those displaying a signal of at least 2-fold over background compared to a secondary-antibody only well were taken forward for further analysis and characterization.
For B1, the “fold-change over parental HEK293” value amounted to 11.4 fold.

Take B2: the “fold-change over parental HEK293” value stood at 35.1 fold.

For the molecule B3, the “fold-change over parental HEK293” value was 24.4 fold.

Take B4: the “fold-change over parental HEK293” value amounted to 10.7 fold.

As to B5, the “fold-change over parental HEK293” value stood at 19.7 fold.

For B6, the “fold-change over parental HEK293” value is 17.5 fold.

A further experiment has as its target T5, cynomolgus (cyno) TMEM106B (cynomolgus, UniProt Q9NUM4 2-274 (human entry)).
T5 construct: on transiently transfected HEK293 cells
Nature of the experiment: FACS, HEK293 transfectants.
Procedure: as §5
For the molecule B1, the “fold-change over parental HEK293” value came to 37 fold.

As for B2, the “fold-change over parental HEK293” value worked out at 66 fold.

In the case of B3, the “fold-change over parental HEK293” value was 40.5 fold.

In the case of B4, the “fold-change over parental HEK293” value turned out to be 22.3 fold.

For B5, the “fold-change over parental HEK293” value worked out at 33.7 fold.

On to B6, for which the “fold-change over parental HEK293” value was 47.5 fold.

Another experiment concerns the target T4, mouse TMEM106B. Nature of the experiment: FACS, HEK293 transfectants.
Procedure: as §5
B1: the “fold-change over parental HEK293” value came to 26.6 fold.

Take B2: the “fold-change over parental HEK293” value was 44.6 fold.

On to B3, for which the “fold-change over parental HEK293” value is 29.2 fold.

For B4, the “fold-change over parental HEK293” value came out at 8.52 fold.

With B5, the “fold-change over parental HEK293” value turned out to be 22.1 fold.

As to B6, the “fold-change over parental HEK293” value was 15.5 fold.

The target in another experiment is T2, human TMEM106B. Nature of the experiment: FACS HEK+huTMEM, 1.0 ug/ml.
Procedure: as §4
The molecule B1 had an MFI of 64500.

B2 registered an MFI of 63300.

Turning to B3, the MFI was found to be 89100.

As for B4, the MFI turned out to be 62100.

Take B5: the MFI is 66400.

For the molecule B6, the MFI turned out to be 40000.

The target of another experiment is T2, human TMEM106B. Nature of the experiment: FACS U251.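 Note: flow cytometry of cells exposed to antibody (purified at 10 µg/mL, or hybridoma supernatant) for 1 h on ice, with propidium iodide-positive dead cells gated out.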
B1: the MFI turned out to be 866.

Turning to B2, the MFI turned out to be 730.

Molecule B3 displayed an MFI of 1080.

B4: the MFI turned out to be 1540.

Turning to B5, the MFI was determined as 998.

Turning to B6, the MFI is 442.

Another experiment has as its target T2, human TMEM106B. Nature of the experiment: FACS HEK+huTMEM, 0.1 ug/ml.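 Note: flow cytometry binding of purified mouse IgG antibodies to HEK293 cells transiently expressing TMEM106B, read as median fluorescence intensity with propidium iodide positive dead cells gated out.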
The molecule B1 gave an MFI of 10800.

B2: the MFI is 24400.

Regarding B3, the MFI is 48700.

With B4, the MFI came to 28300.

The molecule B5 came in with an MFI of 19800.

In turn, B6 yielded an MFI of 9870.
